Reference: paper PMC4604023
Like-named read-outs stand apart in the source and are kept apart here.

What was measured:
nucleocapsid protein N [1] = target: nucleocapsid protein N (Rift Valley fever virus, UniProt P21700 1-245); experiment: filter binding
Target sequence in this assay (P21700 whole entry): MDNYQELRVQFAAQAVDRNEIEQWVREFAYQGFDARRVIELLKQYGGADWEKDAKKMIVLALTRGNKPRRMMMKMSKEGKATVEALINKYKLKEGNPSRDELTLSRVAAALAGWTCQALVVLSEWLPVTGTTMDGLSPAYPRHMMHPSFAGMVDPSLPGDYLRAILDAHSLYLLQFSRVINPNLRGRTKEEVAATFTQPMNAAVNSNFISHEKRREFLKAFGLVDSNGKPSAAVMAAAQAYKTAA

nucleocapsid protein N [2] = target: nucleocapsid protein N (Rift Valley fever virus, UniProt P21700 1-245); experiment: filter binding; remark: listed apart in the source
Target sequence in this assay (P21700 whole entry): as above

Binder	binding result (nucleocapsid protein N [1])	binding result (nucleocapsid protein N [2])
MBE87 (structured_RNA) RNA: GGCAUUACGGCCGGGAGCCAGUAUUACUGAUUGAUGAUUCUGUGGGCGUCUUCUAG	binds	
AS1 (AS-1) (structured_RNA) RNA: GGUCGACAGGCUAGGCCGUCUAAAGCUGAUUGCUCCCGGGGAAUAAUUAUUGACAGCU		binds
AS2 (AS-2) (structured_RNA) RNA: GGAGUAUCUGUCGGCAUCACGCUUGGAUGUGCAAGGCUCUUUAUCUCUAUUAUGCAAG		binds
AS4 (AS-4) (structured_RNA) RNA: GGGGCGCGUUCUAAACAACGAUUGCCGACAAGACGAUUUCUGGGUCAAACUUUAUUCG		binds
